This is an account of results in PMC9809158 (Nature structural & molecular biology, 2022).

Values joined by “and” are separate entries in the source; they are usually repeats but may differ in a detail not shown here. Equal values may be shown once. Read-outs that look alike come from different tables or passages of the source.

Experiment [1] deals with NaVAb1p (Alcanivorax borkumensis NaVAb1 'pore only' protein), crystallised from bicelles (Alcanivorax borkumensis). In words: crystal structure.
Experiment [2] deals with full-length NaVSp1 (from His-MBP-NaVSp1), reconstituted in lipid nanodiscs or amphipol A8-35 (Silicibacter pomeroyi). In words: SEC-MALS. Background: SEC sorts molecules by how far they enter the pores of the column.
Experiment [3] addresses full-length NaVSp1 with C-terminal GFP (Silicibacter (Ruegeria) pomeroyi, entry …, UniProt F7IVA8). The experiment can be described thus: fluorescence-detection size-exclusion chromatography.
The target of experiment [4] is full-length NaVAe1 with C-terminal GFP (Alkalilimnicola ehrlichii, entry strain …, UniProt Q0ABW0). Described as above.
For experiment [5], the target named is T1, full-length NaVSp1 (from His-MBP-NaVSp1), reconstituted in lipid nanodiscs or amphipol A8-35 (Silicibacter pomeroyi).
T1 chain: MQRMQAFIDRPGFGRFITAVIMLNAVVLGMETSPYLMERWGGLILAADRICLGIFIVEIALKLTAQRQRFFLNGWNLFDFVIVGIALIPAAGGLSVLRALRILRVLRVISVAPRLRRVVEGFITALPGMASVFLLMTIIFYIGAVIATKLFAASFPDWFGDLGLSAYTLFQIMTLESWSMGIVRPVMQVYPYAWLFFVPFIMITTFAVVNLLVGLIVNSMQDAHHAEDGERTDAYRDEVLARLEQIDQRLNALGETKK
In words: SEC-MALS.

For orientation: stoichiometry N means the number of molecules, sites or subunits per partner or assembly. Molecule “NaVAb1p (Alcanivorax borkumensis NaVAb1 'pore only' protein), crystallised from bicelles (domain or fragment)” registered a stoichiometry N in experiment [1] of 4.

Turning to “full-length NaVSp1 (from His-MBP-NaVSp1), reconstituted in lipid nanodiscs or amphipol A8-35 (natural protein)”, in experiment [2], the stoichiometry N is 4 and 8.

B1: sFab SAT09 (synthetic Fab from phage display, selected on NaVAe1/Sp1CTD in nanodiscs) (Fab, V domains shown)
VH: EVQLVESGGGLVQPGGSLRLSCAASGFNFSSSSIHWVRQAPGKGLEWVASISSSSGSTSYADSVKGRFTISADTSKNTAYLQMNSLRAEDTAVYYCARTYGWYYSWWWAFDYWGQGTLVTVSS
VL: DIQMTQSPSSLSASVGDRVTITCRASQSVSSAVAWYQQKPGKAPKLLIYSASSLYSGVPSRFSGSRSGTDFTLTISSLQPEDFATYYCQQGDPRLVTFGQGTKVEIK
Regarding B1, the binding result in experiment [3] and in experiment [4] was “binds” throughout. Moreover, in experiment [5], the “stoichiometry N” value is 2 SAT09 sFabs to one channel.
